From doi:10.1101/2023.05.30.542831

Molecular target: APB-R3, long-acting recombinant human IL-18BP linked to the human albumin-binding Fab fragment SL335 (human)
Experiment: SPR

Kd: 60.9 pM
Substance: human IL-18 (from UniProt Q14116 37-193) (ligand)
